Measured values from patent publication US20180327500A1.
Blank lines part the entries; values can stand above or below the binder they belong to.

How the values were obtained:
[1] = biological target: human MET Fc fusion protein (R&D Systems) (human) (UniProt P08581); assay: BLI; MET-Fc saturated with antibody at 80 ug/ml (533 nM), then HGF as competitor at 20 ug/ml
[2] = biological target: human MET ECD construct with AA 129-143 exchanged to mouse sequence, on HEK293 cells (human); assay: flow cytometry on transfected HEK293 cells, normalised to 5D5 binding at 3 ug/ml
[3] = biological target: human MET ECD construct with H209 mutated to mouse sequence, on HEK293 cells (human) (UniProt P08581); assay: as above

% HGF binding inhibition [1]: 50%
B1: 28-MET antibody analog (antibody, from another filing, IgG1, V domains shown)
VH: QVQLQESGPGLVKPGETLSLTCTVSGGSISGYYWSWIRQAPGKGLEWIGEIYYAGSTLYNPSLKGRVTISVDTSKNQFSLKLSSVTAEDTAVYYCARHYGLDWFGDTGMDVWGQGTLVTVSS
VL: DIELTQPPSVSVAPGQSITISCSGDNLGDKYVHWYQQKPGQAPVLVIYDDNERPSGIPERFSGSNSGNTATLTISGTQAEDEADYYCSAYGSHSGTVFGGGTKLTVLG

% HGF binding inhibition [1]: 74%
% binding compared to 5D5 [2]: 58%
% binding compared to 5D5 [3]: 43%
B2: 36C4 antibody analog (antibody, from another filing, IgG1, V domains shown)
VH: QVQLVESGPGLVKPSQTLSLTCAVSGGSITTNYYYWSWIRQSPGKGLEWMGVIAYDGSTDYSPSLKSRTSISRDTSKNQFSLQLSSVTPEDTAVYYCARDVRVIATGWATANALDAWGQGTLVTVSS
VL: QSVLTQPPSVSGSPGKTVTISCAGTSSDVGYGNYVSWYQQLPGTAPKLLIFAVSYRASGIPDRFSGSKSGNTAFLTISGLQSEDEADYYCASYRSSNNAAVFGGGTHLTVL

% HGF binding inhibition [1]: 81%
B3: 13-MET antibody analog (antibody, from another filing, IgG1, V domains shown)
VH: QVQLKESGPALVKPTQTLTLTCTFSGFSLSTSGMVVSWIRQPPGKALEWLAFISWDDDKYYSTSLKTRLTISKDTSKNQVVLTMTNMDPVDTATYYCAREPGRYGGYYFDYWGQGTLVTVSS
VL: DIQMTQSPSSLSASVGDRVTITCRASQTISHYLAWYQQKPGKAPKLLIYAASILQSGVPSRFSGSGSGTDFTLTISSLQPEDFAVYYCQQYSGFPVTFGQGTKVEIKR

% HGF binding inhibition [1]: 69%
B4: 223C4 antibody analog (antibody, from another filing, IgG1, V domains shown)
VH: EVLLQQSGPELVKPGASVKIPCKASGYTFTDYNMDWVKQSHGMSLEWIGDINPNNGGTIFNQKFKGKATLTVDKSSSTAYMELRSLTSEDTAVYYCARGRYVGYYYAMDYWGQGTSVTVSS
VL: DIQMTQSPASLSVSVGETVTITCRASENIYSNLAWYQQKQGKSPQLLVYAATNLVDGVPSRFSGSGSGTQYSLKINSLQSEDFGSYYCQHFWGPPYTFGGGTKLEIK
